Measurements taken from PMC9318713, “Exploring the Utility of ssDNA Aptamers Directed against Snake Venom Toxins as New Therapeutics for Snakebite Envenoming”.

T1: ancrod (recombinant SVSP) (Calloselasma rhodostoma? (printed C. …, UniProt P26324 1-234))
T1 sequence: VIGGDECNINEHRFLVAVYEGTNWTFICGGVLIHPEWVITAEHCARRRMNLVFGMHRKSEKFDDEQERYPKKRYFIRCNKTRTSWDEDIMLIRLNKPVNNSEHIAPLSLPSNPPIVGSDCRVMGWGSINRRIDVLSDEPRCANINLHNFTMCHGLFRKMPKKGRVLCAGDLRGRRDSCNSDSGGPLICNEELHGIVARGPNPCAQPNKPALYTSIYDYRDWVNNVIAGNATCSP


How the values were obtained:
[1] = biological target: T2, batroxobin (recombinant SVSP) (Bothrops atrox? (printed B. atrox), UniProt P04971 25-255); experiment: fluorescence bead binding assay; conditions: protein: recombinant; label: 6-FAM
T2 sequence (P04971 25-255): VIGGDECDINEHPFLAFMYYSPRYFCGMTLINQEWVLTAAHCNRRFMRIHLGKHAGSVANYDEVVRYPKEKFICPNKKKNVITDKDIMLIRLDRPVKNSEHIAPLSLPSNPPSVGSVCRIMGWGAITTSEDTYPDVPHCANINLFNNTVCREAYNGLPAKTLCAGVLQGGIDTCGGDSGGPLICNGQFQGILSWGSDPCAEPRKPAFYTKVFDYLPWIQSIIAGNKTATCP

[2] = biological target: T1, ancrod (recombinant SVSP); experiment: fluorescence bead binding assay; 2 mM Mg2+; Kd: 50 mM Tris-HCl pH 7.5, 150 mM NaCl, 2 mM MgCl2, RT, 1 h, toxin on Sepharose beads; ALISA: 100 ng toxin coated, aptamer in nuclease-free water, RT, 2 h, PBST; conditions: protein: recombinant; label: 6-FAM (Kd); HRP (ALISA)
[3] = biological target: T1, ancrod (recombinant SVSP); experiment: fluorescence bead binding assay; 2 mM Mg2+; Kd only in figure, within 3.0-17.8 nM; Kd: 50 mM Tris-HCl pH 7.5, 150 mM NaCl, 2 mM MgCl2, RT, 1 h, toxin on Sepharose beads; ALISA: 100 ng toxin coated, aptamer in nuclease-free water, RT, 2 h, PBST; conditions: protein: recombinant; label: 6-FAM
[4] = biological target: T2, batroxobin (recombinant SVSP); experiment: fluorescence bead binding assay; 2 mM Mg2+; conditions: protein: recombinant; label: 6-FAM (Kd); HRP (ALISA)

| Binder | binding result [1] | binding result [3] | also measured |
| --- | --- | --- | --- |
| TAGTAACAGGTCTGCTTAGGCTTGCGAGGAGTACTAGTAT (ssDNA) [batroxobin-5] | binds | – | – |
| GGACCGACCCTTTAGCATTTATGACCCTTGTCATCGGGCT (ssDNA) [ancrod-55] | – | – | Kd [2]: 3 nM |
| TAGCATGGGTGGTCAATTTAAGTACAGTGTCGTGCTCACT (ssDNA) [ancrod-7] | – | binds | – |
| TGGTCTAAGGACTGCTTAGGATTGCGATATGGTCCAGATG (ssDNA) [ancrod-11] | – | binds | – |
| TGTCTGGTATGCAAAGGACTGCTGTACTGTTAGCTTTTGT (ssDNA) [batroxobin-26] | – | – | Kd [4]: 4.7 nM |
| AGGTCCTATTGTATACAGGGAGCCCTCGGTCTTGCTGTGA (ssDNA) [batroxobin-29] | binds | – | – |
